Legend:
[1] = molecular target: T1, rFVIII (Homo sapiens, UniProt P00451); assay: confirmatory binding assay in filtration plate format using 14C-rFVIII; conditions: Table 3; for Total dpm / beads % total / beads dpm: 14C-rFVIII 20 nM; for 0.5M CaCl2 % total / 2% acetic acid % total / 2% acetic acid dpm / 0.5M CaCl2 dpm: 14C-rFVIII 20 nM in PPF, 5 mg beads; for 0.5M CaCl2 dpm: 3.0 × 10^15 DPM/mole, 5° C.; for beads % total / beads dpm: remaining on beads after washes
Description: Confirmatory binding assays were performed in a filtration plate format using individual peptide sequences synthesized directly onto the TOYOPEARL AF amino 650 M resin, at a final substitution density of 0.1 mmole/g resin. A slurry of each individual peptide sequence was prepared using deionized water. A 100 μL volume of beads (corresponding to 5 mg) was loaded into each well of the filtration plate (MULTISCREEN Assay System, Millipore, Bedford, Mass.), in triplicate for each peptide sequence. Beads were washed with 20% ethanol and incubated overnight with equilibration buffer (20 mM imidazole, 10 mM
CaCl2, 0.105 M NaCl, pH 6.9). A 100 μL aliquot of ^14 C-rFVIII diluted in neat PPF to a final concentration of 20-30 nM was loaded into each well and incubated for 1 hour at 5° C. Filtrate (unbound ^14 C-rFVIII) was collected into a microtiter plate and transferred to liquid scintillation vials for dpm counting. Beads were washed sequentially with: 100 μL of equilibration buffer for 15 minutes, 200 μL of 0.5 M CaCl2 (in equilibration buffer), 200 μL of 1.0 M CaCl2 (in equilibration buffer), and 200 uL of 2% by volume glacial acetic acid in water, for 1 hour each at 5° C. Scintillation counting on the unbound ^14 C-rFVIII (plus equilibration buffer wash), salt and acid washes, as well as on the beads was then performed and the overall mass balance calculated.
Beads presenting the appropriate peptide sequence on the surface were placed in the filtration plate wells and incubated sequentially with equilibration buffer, ^14 C-rFVIII in PPF, equilibration buffer, 0.5 M CaCl2 wash, 1.0 M CaCl2 wash and 2% acetic acid wash. After each incubation, filtrate was collected in microtiter plates, and dpm counted on each
In Table 3, the ^14 C-rFVIII was loaded at 20 nM (in PPF) and the radiolabeling yield was at 3.0×10^15 dpm/mole. In Table 4, the ^14 C-rFVIII was loaded at 30 nM (in PPF) and the radiolabeling yield was at 5.0×10^15 dpm/mole.

[2] = molecular target: T1, rFVIII; assay: column format binding assay, rFVIII mass per fraction by sandwich capture ELISA for the light chain; conditions: for 0.5M CaCl2 ng / 0.5M CaCl2 % total / 2% acetic acid % total / 2% acetic acid ng / Flow through % total / Total ng / Flow through ng: Table 5; for Flow through ng: 10,000 ng rFVIII in 1:10 PPF injected, 5° C.; for ELISA results % total: Table 9, 0.5M CaCl2 fraction
Description: (§1) Immunoassay on rFVIII using a sandwich capture ELISA for the light chain and activity assay using a chromogenic substrate (COATEST Factor VIII kit from diaPharma, Franklin, Ohio) were performed on a BIOMEK® automated liquid handling system from Beckman Instruments (Brea, Calif.). The monoclonal antibody for rFVIII light chain (known as C7F7), the ELISA assay standard (lot A70K019), and the control for the activity assay (lot A70A001 @ 140 IU/mL) were from the Bayer Corporation (Berkeley, Calif.). The standard for the activity assay was at 11.2 IU/mL (Bayer, Clayton, N.C.), calibrated against the MEGA 1 standard, which is a working standard used by American manufacturers for measuring factor VIII activity (21).
(§2) Additional confirmatory binding assay and performance of the discovered binding peptides in terms of total rFVIII and activity recovery was performed in a column chromatographic format on a microbore HPLC. The resins were packed into 0.4×5 cm columns (Thomson, Springfield, Va.) and tested on the MICHROM HPLC system (Michrom BioResources, Auburn, Calif.). The elution program for the trials utilized the following method. The column was pre-equilibrated with equilibration buffer (as above). A 1 mL aliquot of 1:10 PPF followed by 1 mL of rFVIII (10,000 ng) in 1:10 PPF were injected and allowed sufficient time to flow through the column using equilibration buffer. The column was then washed with step elutions of 0.5 M and 1.0 M CaCl2 in equilibration buffer. The column was exposed to equilibration buffer. Remaining protein was eluted with 2% by volume glacial acetic acid in water. Columns were kept at 5° C. during the chromatographic runs. For each 1 mL injection (equilibration buffer, 1:10 PPF and 10,000 ng rFVIII in 1:10 PPF), the chromatographic cycle was run for 45 minutes (injection, flow through, 0.5 M CaCl2, 1.0 M CaCl2, equilibration buffer, 2% acetic acid, equilibration buffer).
(§3) A Gilson FC204 fraction collector at the HPLC outlet collected individual eluates for further analysis. Each collection tube had 100 μL hSA added to it to stabilize the rFVIII. Fractions collected from the 2% acetic acid eluates were neutralized with 2 M Tris, pH 10.5 to bring the pH to neutrality. The fractions were analyzed for total protein by the integration of the absorbance at 280 nm, for rFVIII by immunoassay (sandwich capture ELISA), and for rFVIII activity by a chromogenic substrate assay.
Tables 5 and 6 present the results from the additional confirmatory binding assays using the column format. The chromatography method was run by injecting the samples at a flow rate of 865 μL/min (413 cm/hr). In order to provide a 10 minute residence time of sample in the column the flow was decreased to 17 μL/min (10 cm/hr) upon injection.
Following the incubation, the flow was set at 865 μL/min (413 cm/hr) for the step clutions of 0.5 M CaCl2, 1.0 M CaCl2, and 2% acetic acid. Results are expressed in terms of the total mass of rFVIII in each fraction, as determined by the sandwich capture ELISA assay for the rFVIII light chain. […] A control using a non-binding peptide sequence (IGF) is also shown for comparison--in this case, 95% of the rFVIII loaded to the column was collected in the flow through fraction. Additional controls with no

[3] = molecular target: T1, rFVIII; assay: rFVIII activity recovery from peptide columns by chromogenic substrate assay (COATEST); assay type: biochemical; conditions: for 0.5M CaCl2 IU / 2% acetic acid % total / 2% acetic acid IU / Flow through % total / Total IU / 0.5M CaCl2 % total / Flow through IU: Table 7; for 0.5M CaCl2 % total: activity recovery; for Flow through IU: rFVIII activity in fraction; for Activity results % total: Table 9, 0.5M CaCl2 fraction
Description: as §1, §2, §3
Tables 7 and 8 list the sequences for which activity recovery was determined by a chromogenic substrate assay (COASTEST kit, diaPharma, Franklin, Ohio). Chromatographc conditions are the same as described above for the results from Tables 5 and 6. It can be

T1 sequence (P00451 20-2351): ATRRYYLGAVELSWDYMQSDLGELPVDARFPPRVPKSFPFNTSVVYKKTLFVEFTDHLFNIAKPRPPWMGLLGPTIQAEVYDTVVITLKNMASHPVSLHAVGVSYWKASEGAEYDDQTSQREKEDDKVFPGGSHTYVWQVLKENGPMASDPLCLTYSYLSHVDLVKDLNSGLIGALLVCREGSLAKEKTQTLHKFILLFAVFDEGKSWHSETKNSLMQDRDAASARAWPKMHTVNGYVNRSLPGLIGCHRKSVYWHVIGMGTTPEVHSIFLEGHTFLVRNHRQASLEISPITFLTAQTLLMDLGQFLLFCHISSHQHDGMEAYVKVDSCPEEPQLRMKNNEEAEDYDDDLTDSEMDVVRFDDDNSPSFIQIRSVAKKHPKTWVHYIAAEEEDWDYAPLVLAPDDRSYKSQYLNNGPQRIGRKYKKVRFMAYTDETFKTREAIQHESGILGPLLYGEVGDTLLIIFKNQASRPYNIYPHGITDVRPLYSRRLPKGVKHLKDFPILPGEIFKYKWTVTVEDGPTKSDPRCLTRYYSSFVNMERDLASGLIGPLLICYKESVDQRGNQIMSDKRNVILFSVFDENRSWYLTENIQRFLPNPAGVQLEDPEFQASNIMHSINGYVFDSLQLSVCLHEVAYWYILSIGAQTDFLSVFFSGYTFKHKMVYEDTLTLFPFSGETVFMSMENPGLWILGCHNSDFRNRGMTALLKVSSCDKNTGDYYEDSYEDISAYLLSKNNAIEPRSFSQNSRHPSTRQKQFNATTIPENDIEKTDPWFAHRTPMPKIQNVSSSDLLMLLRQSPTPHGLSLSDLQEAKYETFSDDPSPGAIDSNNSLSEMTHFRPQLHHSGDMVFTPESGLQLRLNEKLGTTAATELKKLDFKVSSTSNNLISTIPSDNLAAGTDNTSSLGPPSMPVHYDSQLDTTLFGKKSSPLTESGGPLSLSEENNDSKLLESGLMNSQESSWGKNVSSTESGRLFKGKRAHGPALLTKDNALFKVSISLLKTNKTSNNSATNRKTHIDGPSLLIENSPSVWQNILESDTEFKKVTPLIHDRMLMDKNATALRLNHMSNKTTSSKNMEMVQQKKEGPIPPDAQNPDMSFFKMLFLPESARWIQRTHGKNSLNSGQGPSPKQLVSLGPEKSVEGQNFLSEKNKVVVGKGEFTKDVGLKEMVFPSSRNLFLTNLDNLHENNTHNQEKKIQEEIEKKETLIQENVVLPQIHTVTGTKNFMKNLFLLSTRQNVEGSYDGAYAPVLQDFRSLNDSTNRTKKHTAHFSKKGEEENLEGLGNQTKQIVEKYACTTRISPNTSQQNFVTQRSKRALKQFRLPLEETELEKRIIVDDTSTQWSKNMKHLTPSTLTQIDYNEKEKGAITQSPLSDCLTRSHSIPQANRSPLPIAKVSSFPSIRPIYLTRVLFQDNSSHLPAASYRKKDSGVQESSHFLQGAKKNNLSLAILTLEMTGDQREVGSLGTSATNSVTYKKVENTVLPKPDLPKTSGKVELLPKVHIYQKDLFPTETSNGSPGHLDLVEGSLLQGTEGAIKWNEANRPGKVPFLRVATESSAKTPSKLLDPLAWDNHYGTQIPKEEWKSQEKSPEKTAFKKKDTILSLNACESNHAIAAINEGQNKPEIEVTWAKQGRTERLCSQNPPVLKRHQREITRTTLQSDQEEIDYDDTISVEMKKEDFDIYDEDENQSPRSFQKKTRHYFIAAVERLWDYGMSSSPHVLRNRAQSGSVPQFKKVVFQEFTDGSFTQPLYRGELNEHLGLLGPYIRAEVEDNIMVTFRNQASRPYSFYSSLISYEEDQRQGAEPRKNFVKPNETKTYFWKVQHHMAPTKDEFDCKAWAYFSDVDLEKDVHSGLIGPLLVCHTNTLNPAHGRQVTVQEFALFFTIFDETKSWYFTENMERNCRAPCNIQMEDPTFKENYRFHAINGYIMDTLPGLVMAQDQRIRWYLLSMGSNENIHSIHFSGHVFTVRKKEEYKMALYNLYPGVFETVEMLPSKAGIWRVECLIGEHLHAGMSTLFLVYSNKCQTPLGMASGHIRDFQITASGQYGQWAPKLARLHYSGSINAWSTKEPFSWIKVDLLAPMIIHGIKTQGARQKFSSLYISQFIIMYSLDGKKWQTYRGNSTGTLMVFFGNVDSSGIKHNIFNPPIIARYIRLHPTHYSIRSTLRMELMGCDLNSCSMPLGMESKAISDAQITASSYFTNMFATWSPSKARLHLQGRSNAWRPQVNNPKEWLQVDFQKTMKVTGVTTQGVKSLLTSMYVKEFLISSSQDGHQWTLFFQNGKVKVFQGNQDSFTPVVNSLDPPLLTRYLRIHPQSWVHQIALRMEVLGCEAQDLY
T1 sequence (P00451 1668-2351 limits assumed): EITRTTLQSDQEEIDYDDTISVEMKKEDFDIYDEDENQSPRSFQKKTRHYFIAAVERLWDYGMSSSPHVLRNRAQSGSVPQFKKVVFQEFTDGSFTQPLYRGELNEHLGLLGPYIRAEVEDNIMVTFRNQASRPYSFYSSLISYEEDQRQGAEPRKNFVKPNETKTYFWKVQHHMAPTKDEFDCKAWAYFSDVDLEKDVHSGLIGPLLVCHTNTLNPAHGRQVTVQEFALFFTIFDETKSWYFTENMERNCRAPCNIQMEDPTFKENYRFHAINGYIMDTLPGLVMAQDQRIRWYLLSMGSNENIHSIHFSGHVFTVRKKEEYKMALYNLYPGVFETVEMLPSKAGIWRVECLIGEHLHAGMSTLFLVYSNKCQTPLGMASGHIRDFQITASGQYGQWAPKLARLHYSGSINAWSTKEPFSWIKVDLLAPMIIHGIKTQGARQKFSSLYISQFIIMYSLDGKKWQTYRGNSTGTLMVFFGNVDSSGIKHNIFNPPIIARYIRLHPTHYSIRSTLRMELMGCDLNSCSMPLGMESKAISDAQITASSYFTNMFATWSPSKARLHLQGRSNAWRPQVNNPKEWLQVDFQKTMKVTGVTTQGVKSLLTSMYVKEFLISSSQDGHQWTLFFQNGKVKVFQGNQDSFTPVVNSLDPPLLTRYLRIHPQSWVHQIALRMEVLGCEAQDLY

| Substance | Total dpm [1] [dpm] | 0.5M CaCl2 % total [1] [%] | 2% acetic acid % total [1] [%] | 2% acetic acid dpm [1] [dpm] | 0.5M CaCl2 dpm [1] [dpm] | beads % total [1] [%] | beads dpm [1] [dpm] | 0.5M CaCl2 ng [2] [ng] | 0.5M CaCl2 % total [2] [%] | 2% acetic acid % total [2] [%] | 2% acetic acid ng [2] [ng] | Flow through % total [2] [%] | Total ng [2] [ng] | Flow through ng [2] [ng] | ELISA results % total [2] [%] | 0.5M CaCl2 IU [3] [IU] | 2% acetic acid % total [3] [%] | 2% acetic acid IU [3] [IU] | Flow through % total [3] [%] | Total IU [3] [IU] | also measured |
| --- | --- | --- | --- | --- | --- | --- | --- | --- | --- | --- | --- | --- | --- | --- | --- | --- | --- | --- | --- | --- | --- |
| 1 (KPNPLA) [compound 1] | 3162 | 85 | 12 | 368 | 2694 | 3 | 99 | 4961 | 88 | 1 | 61 | 10 | 5651 | 583 | 88 | 32.8 | 2 | 0.58 | 0 | 36.5 | 0.5M CaCl2 % total [3]: 90%; Flow through IU [3]: 0.03 IU; Activity results % total [3]: 90% |
| 2 (RNPPNN) [compound 2] | 2767 | 86 | 12 | 322 | 2366 | 3 | 79 | 5745 | 92 | 0 | 31 | 7 | 6245 | 447 | 92 | 51.6 | 1 | 0.5 | 1 | 54.3 | 0.5M CaCl2 % total [3]: 95%; Flow through IU [3]: 0.4 IU; Activity results % total [3]: 95% |
| 5 (LNWKYG) [compound 5] | 4091 | 86 | 10 | 430 | 3519 | 3 | 143 | 5530 | 97 | 2 | 125 | 0 | 5680 | 25 | 97 | 36.3 | 3 | 1.2 | 0 | 37.8 | 0.5M CaCl2 % total [3]: 96%; Flow through IU [3]: 0.0 IU; Activity results % total [3]: 96% |

— US6191256A, “Recombinant factor VIII binding peptides” (Bayer Corporation, priority 1998, dated 2001)
